From patent US20240197872A1

Target: CD20 on CD20-positive human lymphoma cell lines Raji and Daudi (human) (UniProt P11836)
Assay: cell-based or functional assay

UniProt P11836, sequence (P11836 whole entry): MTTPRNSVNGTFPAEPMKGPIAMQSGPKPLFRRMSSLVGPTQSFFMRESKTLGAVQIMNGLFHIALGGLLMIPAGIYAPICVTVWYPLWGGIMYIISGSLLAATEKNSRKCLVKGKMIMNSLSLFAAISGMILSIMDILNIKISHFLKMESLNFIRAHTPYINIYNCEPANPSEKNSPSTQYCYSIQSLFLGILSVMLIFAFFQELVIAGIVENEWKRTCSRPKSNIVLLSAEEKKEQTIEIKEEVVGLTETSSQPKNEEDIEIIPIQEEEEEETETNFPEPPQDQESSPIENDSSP

“rituximab (commercially available anti-CD20 antibody, Rituxan), conjugated to an ssDNA linker and hybridised to the surface of gdT cells (ACE-gdT-CD20 cells)” gave a percentage of lysed target cells, Daudi, E:T 2:1 (Ctrl-gdT cells without rituximab: 19.68%) of 41.2%, a percentage of lysed target cells, Daudi, E:T 10:1 (Ctrl-gdT cells without rituximab: 43.66%) of 71.2% and a percentage of lysed target cells, Raji, E:T 10:1 (Ctrl-gdT cells without rituximab: 43.13%) of 69.4%.
